Laboratory results: the RNAGym collection of RNA variant scans (doi:10.1073/pnas.2313332121)
This sample holds only a part of the variants without activity.

B1: TPR 5TU (parent)
chain: GGAUCUUCUCGAUCUAACAAAAAAGACAAAUCUGCCACAAAGCUUGAGAGCAUCUUCGGAUGCAGAGGCGGCAGCCUUCGGUGGCGCGAUAGCGCCAACGUUCUCAACUAUGACACGCAAAACGCGUGCUCCGUUGAAUGGAGUUUAUCAUG

Variants of: B1
Assay: polymerase ribozyme fitness, log enrichment relative to wild type (log ratio); higher = more active; in vitro selection for triplet polymerase activity
How it was run: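 Fitness measures genotype enrichment against wild-type enrichment on a logarithmic scale, with inverse-variance-weighted averaging of replicates. The logarithm is base 2, and genotypes were kept only with ≥10 input reads and ≥1 read per output in Illumina sequencing. The sequenced libraries came from one triplicate in vitro selection round, including frozen incubation at −7 °C, of PCR-built, transcribed mutant libraries of each subunit of a heterodimeric triplet polymerase ribozyme.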

Variant	polymerase ribozyme fitness (log ratio)
G50U G81C U134A	-2.19
G50U A66C C76U U82G A89G A138U	≤ -4.2
A52C A97U	-1.59
G50C U56A A73G C125A	-4.1
C51A C54U A91U G100U G124A U135C	≤ -4.2
G50C U61A A110U U145G	≤ -4.2
C51U A64C C79A C85U A142G	≤ -4.2
C51G C57U G67C C87G A91G	≤ -4.2
G50U C85A	-1.4
C51G C76A C87U	≤ -4.2
C51A C57G G68C A73C C76G G86U G100C A120G A122C U134A	≤ -4.2
C51U C96U C105U	0.0676
G50U U139C	-3.65
C51U C87G C93G C105G A106C A113G	≤ -4.2
C51U A73G G92U G124A	-0.37
C51U C72U G92C A98G U127G A138C G140A	≤ -4.2
C51G C85U	-1.91
G50U G83A	-0.347
G50U G83C	-0.813
G50C U55G C63A C76G A91G C125G U145C	≤ -4.2
C51U G83C A106G A122U A142U	≤ -4.2
C51G C79A	≤ -4.2
C51U C93A	-2.34
C51U C93U	-2.53

Variant	polymerase ribozyme fitness (log ratio)
C51U G70U G88A G94U A106C	≤ -4.2
A52C C54A	≤ -4.2
C51U U61C C76U G94C A121U C125G U145A	≤ -4.2
G50U C95G	-0.905
C51A G59U G84U	≤ -4.2
C51U C93G U130C U145A	-3.53
A52C A89U C96G G141U	-1.47
G50U C69U C99U	-3.41
C51U A60U G84A A98G A121C G143U A147C	≤ -4.2
C51A G86U C108G A137C	≤ -4.2
C51G C96A A147C	-3.82
G50U C51U G58U C108G C123G	≤ -4.2
C51U U134A	-2.32
C51U U56A A73U G86A	-4.02
C51G U56A	-2.67
A52C C57U C85U U135A	-1.62
C51G U56A A97U C123U	-3
C51G C87A C93G C105A A113U	≤ -4.2
G50C C125A	-2.76
G50C C125U	-3.89
C51U U56A G71C G84A G140A A142U	≤ -4.2
C51U C85U C96G A119C G141A	-2.65
G50U C85A U144A U145C	-1.01
C51U U53A C93A G124U	-3.59

Variant	polymerase ribozyme fitness (log ratio)
C51G C125U U144C	-4.07
C51G U56A G117U	-2.86
G50U C96G	-0.544
C51A C85A U134C	-2.88
C51U U56A C57A C105G A122G	-2.19
G50U G94A	-0.00242
C51U G58A	-1.32
C51G C79G C96G	≤ -4.2
C51U C75U G88A C93U G94A G136C	≤ -4.2
G50C U56A	-2.92
G50U U55A C96U	-0.864
C51U C69U C96G	-3.06
C51U C85G A115C	-1.9
G50U A66U C69G U135C	≤ -4.2
G50U U102A A142U	-2.57
C51G A106G U144A	-3.29
C51U C54U C85A A98U	-2.81
G50U A106G	0.264
G50C G71U C85A G124U	≤ -4.2
G50U C87U G92A	0.244
C51G G62C C85A G143A	-1.5
C51U C75U C118U	-1.3
C51G A73U	-3.44
C51G C63U C116U U139C	≤ -4.2

Variant	polymerase ribozyme fitness (log ratio)
C51U U78G C96U	≤ -4.2
C51A U82G C96U G143C	≤ -4.2
G50C U101G	-2.64
G50U C96A C116G U144G	-1.25
C51U G62A U139G	-0.262
C51A A52C U146G	-2.06
C51A U127G	-4.1
C51A G86A C118A	-3.43
C51A C75U	-2.27
G50C G83U C93A G100U G124C G128U C132G U145G	≤ -4.2
C51U C96G U144A	-1.45
A52C A73G	-1.89
A52C A73U	-3.14
G50U U56A G94U A106G C116G C123U	-0.9
C51A C57A C87U A98G U146G	-3.12
C51U A52G A60U A66G C103U A107U C114U C123G G143A	≤ -4.2
C51A C85U A89G U146A	-3.11
C51G G58C	-1.42
C51U C69A G84U A91G G133A U144A A147U	≤ -4.2
C51U U56G A73C C79G C93G A137C	≤ -4.2
C51U C95U U104G U144A	-2.33
C51G G83U A110C G140C	≤ -4.2
C51U C108U	-3.72
C51U C95G A110U G141U	≤ -4.2

Variant	polymerase ribozyme fitness (log ratio)
C51G G84U	-3.11
C51G A73G C79G C87G G140C U144A	≤ -4.2
C51A G74A C85A C114A	≤ -4.2
G50U C125G	-0.442
C51U U82A C95U	-1.29
G50U A97U U102A G124A	-2.31
G50U G126A G141C	-4.02
C51U C131G	-3.49
C51U G141C	-0.423
G50U C63U C85A A110G	-4.19
G50U G70A G136U	≤ -4.2
C51U C57A G83C A106G	-0.97
C51U G58U U77G C96A	-4.18
G50U C87U A89G	-3.95
G50U G81A C95U	0.505
G50U U104G G143U	-3.47
C51U G88U U90C G94A C95U A147G	≤ -4.2
C51U C96A C105A C118U	-2.94
C51U G88C	-4.09
C51A G67A A73G C95A U101G G140U U151G	≤ -4.2
C51U U56A C87A C95U C118A U139C	≤ -4.2
A52C A91U C93A G133C	≤ -4.2
C51G A106G	-3.04
C51A G140C	-4.19

Variant	polymerase ribozyme fitness (log ratio)
C51A G140U	-4.11
C51A C95U C118U U135A	-2.41
G50C G117A	-2.37
G50C U61A G62U A142C	-2.79
G50C U56A U78A G83A G94U C95A	≤ -4.2
C51U A52G	-1.18
G50C U53A C57G A73G C93A C95A U101G A107G A138C U144C	≤ -4.2
G50U C87U G136U	-2.29
G50C U55A	-3.29
G50U G92A	-2.93
C51U G59C C72A	≤ -4.2
C51U C69G C118G A142C C149G	≤ -4.2
C51G A64C C69U G80A G86A C96U C114A	≤ -4.2
G50U U53A G58A A73G C79A C93A A107U C116G G136C	≤ -4.2
G50U C87U C96A	-1.48
G50C G83U	-3.77
A52C A91U U148A	≤ -4.2
C51G C79G G86U C114U U134A	≤ -4.2
C51G A91G G92U U101C	≤ -4.2
C51G U53C G67C G86U U101G A138U	≤ -4.2
C51U G94A C118U	-1.44
C51U C96U	-0.419
C51U U53A U61A A97C G140A G143A	≤ -4.2
C51A C57U U146G	-1.67

Variant	polymerase ribozyme fitness (log ratio)
C51G A91G	≤ -4.2
C51G A91U	≤ -4.2
G50U U53G C69G G94A	≤ -4.2
C51A C87A G133U C149G	≤ -4.2
G50C G92A C116U U151C	≤ -4.2
C51A U134G U144A	-4.17
C51A C96A A115G A137U	≤ -4.2
C51U C54G C85U U101G A137G U144G	≤ -4.2
C51A C63U C85A G126A C129A G140A	≤ -4.2
A52C A98G C132G	≤ -4.2
A52C A73G C85A	-3.88
G50U A120U C125G	-0.502
C51U U56A A73U U78G A91U G141C G152A	-3.97
G50C G94A C116U	-3.3
G50U G81A U102G	-2.74
G50U C63U C79G C131G A137C	≤ -4.2
C51U A60G C85A	-3.39
G50U A73U C87U	-2.26
G50U U56A C114U	-2.18
G50U G80A G92A A115U	≤ -4.2
C51A C99G	-4.07
G50U A122G	-0.236
C51U C95G C105U U145A	-1.72
